Source: the supplement of paper PMC10567573

B1: ZNF232 (parent)
chain: FPKSEQVYLHFLSVVTEDGPEPKD

Variants of: B1
Test: protein stability index of a GFP-peptide fusion (GPS, HEK-293T) (PSI 1-6); higher = more stable
Conditions: c terminus: a fixed tail appended
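Note: lentivirally expressed fusions sorted by FACS into six bins by GFP to DsRed ratio, PSI derived from sequencing read proportions per bin multiplied by bin number.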

Going from FPKSEQFYLHFLSVVTEDGPEPKD [V7F] to FPKSEQEYLHFLSVVTEDGPEPKD [V7E], the protein stability index rises from 1.68 to 2.8.

First: FPKSEQRYLHFLSVVTEDGPEPKD [V7R]
Second: FPKSEQIYLHFLSVVTEDGPEPKD [V7I]
The protein stability index of the first is higher: 2.49 for the first, 1.97 for the second.

Going from FPKSEEVYLHFLSVVTEDGPEPKD [Q6E] to FPKSEDVYLHFLSVVTEDGPEPKD [Q6D], the protein stability index rises from 2.6 to 2.87.

Compared with FPKSEHVYLHFLSVVTEDGPEPKD [Q6H], FPKSEYVYLHFLSVVTEDGPEPKD [Q6Y] is lower in protein stability index: 1.88 for the first, 1.47 for the second.

Compared with FPKSEQVYLHFLSVVTFDGPEPKD [E17F], FPKSEQVYLHFLSVVTRDGPEPKD [E17R] is lower in protein stability index: 2.38 for the first, 1.88 for the second.

Compared with FPKSEQVYLHFLSVPTEDGPEPKD [V15P], FPKSEQVYLHFLSVNTEDGPEPKD [V15N] is higher in protein stability index: 2.08 for the first, 2.36 for the second.

Going from FPKSEQVYLHFLSVITEDGPEPKD [V15I] to FPKSEQVYWHFLSVVTEDGPEPKD [L9W], the protein stability index falls from 1.89 to 1.71.

First: FPKSEQVYQHFLSVVTEDGPEPKD [L9Q]
Second: FPKSEQVYLHFWSVVTEDGPEPKD [L12W]
The protein stability index of the first is higher: 2.78 for the first, 1.21 for the second.

Going from FPKSEQVYLHFPSVVTEDGPEPKD [L12P] to FPKSEQVYLHFISVVTEDGPEPKD [L12I], the protein stability index falls from 2.34 to 1.97.

Compared with FPKSEQVYLHFFSVVTEDGPEPKD [L12F], FPKSEQVYLHFLSVVTEDGMEPKD [P20M] is higher in protein stability index: 1.73 for the first, 2.11 for the second.

First: FPKSEQVYLHFLSVVTEDGPEPSD [K23S]
Second: FPKSEQVYLHFLSVVTEDGPEPVD [K23V]
The protein stability index of the first is lower: 1.91 for the first, 2.14 for the second.

Going from FPKSEQVYLHFLSVVTEDGPEPCD [K23C] to FPKSEQVYLHFLSVVTEDGPEPHD [K23H], the protein stability index falls from 2.07 to 1.84.

Going from FPNSEQVYLHFLSVVTEDGPEPKD [K3N] to FPISEQVYLHFLSVVTEDGPEPKD [K3I], the protein stability index falls from 2.71 to 2.23.

First: FPGSEQVYLHFLSVVTEDGPEPKD [K3G]
Second: FPDSEQVYLHFLSVVTEDGPEPKD [K3D]
The protein stability index of the first is higher: 3.07 for the first, 2.35 for the second.

Going from FPYSEQVYLHFLSVVTEDGPEPKD [K3Y] to FPKSEQVYLHFLSVVTEDGPEPKR [D24R], the protein stability index falls from 2.02 to 1.83.

First: FPKSEQVYLHFLSVVTEDGPEPKY [D24Y]
Second: FPKSEQVYLHFLSVVTEDGPEPKC [D24C]
The protein stability index of the first is higher: 2.58 for the first, 1.36 for the second.

Compared with FPKSEQVYLHFLSVVTEDGPEPKM [D24M], FPKSEQVYLHFLSVVTEDGPEPKW [D24W] is lower in protein stability index: 1.56 for the first, 1.35 for the second.

Going from FPKSEQVYLHFLSVVTEDGPEPKA [D24A] to FPKSEQVYLHFLSVVKEDGPEPKD [T16K], the protein stability index rises from 1.8 to 2.77.

Going from FPKSEQVYLHFLSVVEEDGPEPKD [T16E] to FPKSEQVYLHFLSVVIEDGPEPKD [T16I], the protein stability index falls from 2.38 to 2.19.

Compared with FPKSEQVYLHFLSVVQEDGPEPKD [T16Q], FPKSEQVYLHFLSVVCEDGPEPKD [T16C] is higher in protein stability index: 1.87 for the first, 2.47 for the second.

Compared with FPKSEQVYLHFLSVVFEDGPEPKD [T16F], FPKSEQVYLHFLSVVTEDNPEPKD [G19N] is higher in protein stability index: 1.63 for the first, 2.69 for the second.

Compared with FPKSEQVYLHFLSVVTEDIPEPKD [G19I], FPKSEQVYLHFLSVVTEDKPEPKD [G19K] is higher in protein stability index: 1.9 for the first, 2.71 for the second.

First: FPKSEQVYLHFLSVVTEDRPEPKD [G19R]
Second: FPKSEQVYLHFLSVVTEDEPEPKD [G19E]
The protein stability index of the first is higher: 2.45 for the first, 2.43 for the second.

Going from FPKSEQVYLHFLSVVTEDAPEPKD [G19A] to HPKSEQVYLHFLSVVTEDGPEPKD [F1H], the protein stability index rises from 2.33 to 3.88.

Going from MPKSEQVYLHFLSVVTEDGPEPKD [F1M] to GPKSEQVYLHFLSVVTEDGPEPKD [F1G], the protein stability index falls from 4.15 to 3.98.

Going from CPKSEQVYLHFLSVVTEDGPEPKD [F1C] to WPKSEQVYLHFLSVVTEDGPEPKD [F1W], the protein stability index falls from 4.31 to 3.

First: KPKSEQVYLHFLSVVTEDGPEPKD [F1K]
Second: FLKSEQVYLHFLSVVTEDGPEPKD [P2L]
The protein stability index of the first is higher: 4.44 for the first, 2.29 for the second.

Compared with FFKSEQVYLHFLSVVTEDGPEPKD [P2F], FNKSEQVYLHFLSVVTEDGPEPKD [P2N] is higher in protein stability index: 2.37 for the first, 2.8 for the second.

First: FMKSEQVYLHFLSVVTEDGPEPKD [P2M]
Second: FPKSEQVYLHFLSIVTEDGPEPKD [V14I]
The protein stability index of the first is lower: 2.28 for the first, 3.05 for the second.

Compared with FPKSEQVYLHFLSHVTEDGPEPKD [V14H], FPKSEQVYLHFLSWVTEDGPEPKD [V14W] is lower in protein stability index: 2.34 for the first, 1.29 for the second.

Compared with FPKSEQVYLHFLSRVTEDGPEPKD [V14R], FPKSEQVYLHFLSKVTEDGPEPKD [V14K] is lower in protein stability index: 2.45 for the first, 2.29 for the second.

Compared with FPKSEQVYLHFLSFVTEDGPEPKD [V14F], FPKSEQVYLHFLSSVTEDGPEPKD [V14S] is lower in protein stability index: 2.18 for the first, 1.97 for the second.

Going from FPKSEQVYLHFLSMVTEDGPEPKD [V14M] to FPKSEQVYLHFLSQVTEDGPEPKD [V14Q], the protein stability index rises from 2.37 to 2.82.

Compared with FPKSEQVYLHFLSVVTEDGPLPKD [E21L], FPKSEQVYLHFLSVVTEDGPAPKD [E21A] is higher in protein stability index: 1.91 for the first, 2.71 for the second.

Going from FPKSEQVYLHFLSVVTEDGPYPKD [E21Y] to FPKSEQVYLHFLSVVTEDGPIPKD [E21I], the protein stability index rises from 1.68 to 2.33.

First: FPKSEQVYLHFLSVVTEDGPPPKD [E21P]
Second: FPKSEQVYLHFLSVVTEDGPDPKD [E21D]
The protein stability index of the first is lower: 1.91 for the first, 2.02 for the second.

Going from FPKSEQVYLHFLSVVTEDGPMPKD [E21M] to FPKCEQVYLHFLSVVTEDGPEPKD [S4C], the protein stability index falls from 2.04 to 1.74.

First: FPKWEQVYLHFLSVVTEDGPEPKD [S4W]
Second: FPKFEQVYLHFLSVVTEDGPEPKD [S4F]
The protein stability index of the first is lower: 2.14 for the first, 2.49 for the second.

Going from FPKSEQVYLPFLSVVTEDGPEPKD [H10P] to FPKSEQVYLHFLSVVTENGPEPKD [D18N], the protein stability index falls from 1.94 to 1.71.

First: FPKSEQVYLHFLSVVTEHGPEPKD [D18H]
Second: FPKSEQVYLHFLSVVTEMGPEPKD [D18M]
The protein stability index of the first is higher: 2.46 for the first, 1.01 for the second.

First: FPKSEQVYLHFLSVVTEQGPEPKD [D18Q]
Second: FPKSEQVYLHNLSVVTEDGPEPKD [F11N]
The protein stability index of the first is lower: 1.77 for the first, 3.18 for the second.

Compared with FPKSEQVYLHALSVVTEDGPEPKD [F11A], FPKSCQVYLHFLSVVTEDGPEPKD [E5C] is lower in protein stability index: 2.49 for the first, 1.65 for the second.

Going from FPKSIQVYLHFLSVVTEDGPEPKD [E5I] to FPKSDQVYLHFLSVVTEDGPEPKD [E5D], the protein stability index rises from 2.23 to 2.84.

Going from FPKSEQVYLHFLMVVTEDGPEPKD [S13M] to FPKSEQVYLHFLTVVTEDGPEPKD [S13T], the protein stability index falls from 1.96 to 1.78.

Going from FPKSEQVYLHFLFVVTEDGPEPKD [S13F] to FPKSEQVYLHFLHVVTEDGPEPKD [S13H], the protein stability index rises from 1.66 to 1.81.

First: FPKSEQVYLHFLLVVTEDGPEPKD [S13L]
Second: FPKSEQVCLHFLSVVTEDGPEPKD [Y8C]
The protein stability index of the first is lower: 1.76 for the first, 2.49 for the second.

Going from FPKSEQVELHFLSVVTEDGPEPKD [Y8E] to FPKSEQVTLHFLSVVTEDGPEPKD [Y8T], the protein stability index falls from 3.09 to 2.13.
